The values that follow come from US6200577A, “Anti-herpesviral agents and assays therefor” (priority 1996, dated 2001).

Data set [1] can be described thus: Solubility of synthetic peptides in buffer. Format: physicochemical. As to conditions: peptides dissolved in 20 mM Tris-HCl, pH 8.0, 250 mM NaCl; unpurified preparations. On the procedure: Synthesis and Purification of Oligopeptides. Peptides were synthesised by continuous flow Fmoc chemistry (Atherton and Sheppard, 1989; McLean et al., 1991) and, where stated in the text, were purified by preparative reverse-phase HPLC (Owsianka et al., 1993). The Mr values of peptides were determined by fast atom bombardment mass spectrometry (M-Scan) and corresponded to the predicted values. Peptides were dissolved in 20 mM Tris-HCl, pH 8.0, 250 mM NaCl and centrifuged at 11,500 g for 1 minute prior to use. […] Precipitates were removed by centrifugation before use.

Data set [2] concerns the target T1, VP16/VP22trunc interaction (Human herpesvirus 1, UniProt P06492).
T1 construct: Plasmid pETVP16 was used to express full-length VP16 under the control of the T7 RNA polymerase promoter; made in house; host or cells: E. coli BL21(DE3)
The data set can be described thus: Co-purification of VP16 with VP22trunc on Ni-NTA resin in presence of peptides. Format: binding, HSV-1. The settings on record: crude peptide at 2 mg/ml (about 1 mM), equal volume mixed with partially purified VP16 extract before VP22trunc. On the procedure:
FIG. 4 Co-elution of VP16 with VP22trunc from Ni-NTA resin. Partially purified extract containing VP16 was incubated in the absence of (lane 14) or presence of […] of VP22trunc (lanes 3 to 13). In lanes 3 to 12, an equal volume of the individual peptides at 2 mg/ml was added to the extract prior to VP22trunc. Peptides added to each reaction were as follows: lane 3, peptide A; lane 4, peptide B; lane 5, peptide C; lane 6, peptide D; lane 7, peptide E; lane 8, peptide F; lane 9, peptide G; lane 10, peptide H; lane 11, peptide I; lane 12, peptide J; lane 13, no peptide. Lanes 3 to 14 show the polypeptides eluted from Ni-NTA resin. Other samples were as follows: lane 1, partially purified VP16 extract, lane 2, purified VP16; lane 15, purified VP22trunc. Samples were electrophoresed on a 12% polyacrylamide gel and the apparent molecular weights of VP16 (65 KDa) and VP22trunc (16 KDa) are shown.
Co-purification of VP16 with VP22trunc on Ni-NTA Resin. Purified VP22trunc and a partially purified extract containing VP16, both in 20 mM Tris-HCl, pH8.0, 250 mM NaCl, were mixed at 4° C. for 15 to 30 minutes on a rotator. 50 μl of equilibrated Ni-NTA resin was added to each mixture and incubation was continued at 40C for a further 15 to 30 minutes. Resin was pelleted at 800 g for 1 minute and the supernatant (non-bound fraction) was removed. Resin was washed sequentially with 0.5 ml of 20 mM Tris-HCl, pH 8.0, 250 mM NaCl, 5 mM imidazole (twice) and 0.5 ml of 20 mM Tris-HCl, pH 8.0, 250 mM NaCl, 60 mM imidazole (four times). Bound protein was eluted by addition of 50 μl of boiling mix (160 mM Tris-HCl, pH 6.7, 2% SDS, 700 mM β-mercaptoethanol, 10% glycerol, 0.002% bromophenol blue) followed by heating to 100° C. for 5 minutes. For peptide studies, peptides were dissolved in 20 mM Tris-HCl, pH8.0, 250 mM NaCl at a concentration of 2 mg/ml. Incubation of peptides with partially purified VP16 extracts was performed at ambient temperature for 2 hours prior to the addition of VP22trunc. Samples were electrophoresed on denaturing polyacrylamide gels.
Results presented in Section 2(i) had shown that VP16 co-elutes from Ni-NTA resin in the presence of VP22trunc and it was concluded that this indicated interaction between these polypeptides. The ability of synthetic peptides to inhibit this interaction was analysed by mixing them individually with the partially purified VP16 extract prior to addition of VP22trunc. From the intensity of the 65 KDa species in the crude extract (FIG. 4, lane 2), it was estimated that the concentration of VP16 was approximately […]. To ensure that experiments were performed in an excess of peptide, peptides were prepared at a concentration of 2 mg/ml (about 1 mM) and equal volumes of peptide and extract were mixed. This gave a relative molar ratio of VP16 to peptide of 1:300. However, it should be noted that certain peptides were not completely soluble (Table 1) and in those cases, the ratio would be reduced.

In data set [3] the target is T2, VP16 (Human herpesvirus 1, UniProt P06492).
T2 construct: Plasmid pETVP16 was used to express full-length VP16 under the control of the T7 RNA polymerase promoter; made in house; host or cells: E. coli BL21(DE3)
The data set can be described thus: ELISA of direct binding of VP16 to plate-coated peptides. More on the design: species or system HSV-1. As to conditions: wells coated with peptide up to 500 μg/ml; VP16 1.6 μg/ml; FIG. 10. The protocol:
FIG. 10 Binding of VP16 to peptides. Microtitre plates were coated with 5-fold dilutions of peptides ranging from 500 μg/ml to 1 μg/ml and blocked with PBS/10% NCS. VP16 was then added to a final concentration of 1.6 μg/ml and detected with LP1. The legend for the peptides added is shown to the right of the graph.
Dilutions of proteins in PBS were coated overnight onto flat bottomed micro-titre plates (Dynatech) at 37° C. and then blocked with either 2% BSA or 10% new-born calf serum (NCS) in PBS for 1 hour at 37° C. Specific binding of a second protein to the plate-bound protein was performed for 1.5-2 hours at ambient temperature. a Excess secondary protein was removed by washing four times with PBS, 0.3% Tween 20. Bound protein was detected by incubation for 1.5-2 hours with LP1 antibody in PBS, 1% gelatin or PBS, 2% NCS. The bound antibody was detected by incubation for 1 hour at ambient temperature with anti-mouse antibody conjugated to HRP (1:500) and visualised with Smg/ml enzyme substrate 2,2'-azino-bis(3-ethylbenzthiazoline-6-sulphonic acid) (ABTS; Sigma) in citrate-phosphate buffer containing 6 μl hydrogen peroxide in a total volume of 20 ml. Optical densities were measured on a Titertek Multiscan PLUS instrument.
To examine whether VP16 could bind directly to the peptides, wells were coated with each peptide (A-J) at a range of concentrations from […] to 500 μg/ml and the plate was then blocked with […]. […] Nonetheless, the data for peptides D and E implicate direct binding of these peptides to VP16 as the mechanism for inhibiting its interaction with VP22. Peptide H also was active in experiments which prevented gB binding to VP22trunc [Section 4 (iii)] and thus also forms an aspect of the invention.
On the technique in general: ELISA stands for enzyme-linked immunosorbent assay.

The target of data set [4] is T3, gB/VP22trunc binding (Human herpesvirus 1, UniProt P10211).
T3 construct: linked residues 798 to 904 of gB to the glutathione-S-transferase (GST) protein expressed by pGex2TNMCR; made in house; host or cells: GST-gB: E. coli DH5alpha; VP22trunc: E. coli BL21(DE3)
In words: Far Western analysis of peptide inhibition of GST-gB binding to VP22trunc. As to conditions: peptide 250 μg/ml co-incubated with GST-gB 1.2 μg/ml; FIG. 12B. Also on record: species or system HSV-1. The protocol: (B) Inhibition of binding of GST-gB (final concentration 1.2 μg/ml)and each of the following peptides at a final concentration of 250 μg/ml: lane 1, no peptide; lane 2, peptide A; lane 3, peptide B; lane 4, peptide C; lane 5, peptide D; lane 6, peptide E; lane 7, peptide F; lane 8, peptide G; lane 9, peptide H; lane 10, peptide I; lane 11, peptide J. Bound GST-gB was detected with anti-GST antibody.
Following electrophoresis, proteins were electrotransferred to either Hybond or ProBlott (Applied Biosystems) membrane and the membrane was incubated in renaturation buffer (50 mM Tris-HCl, pH 8.0, 150 mM NaCl, 10% glycerol, 1 mM DTT) at 4° C. for 5-6 hours.
For membranes probed with GST-gB, blocking was performed overnight in PBSA containing 1% non-fat dried milk and 0.05% Tween 20 at 4° C. Membranes were then washed twice in renaturation buffer (10 min/wash) prior to incubation with fusion protein (final concentration 0.5 μg/ml) in renaturation buffer containing 1% BSA. Incubation was again performed overnight at 4° C. Following washing with renaturation buffer (four times, 10 minutes/wash) and a brief rinse with blocking buffer, the membrane was incubated with anti-GST antibody in PBSA, 1% non-fat dried milk, 0.05% Tween 20 and 1% BSA for 1 hour at ambient temperature. After four washes with PBSA, 0.05% Tween 20 (10 minutes/wash), bound antibody was detected with secondary antibody (goat anti-rabbit IgG, whole molecule; Sigma) conjugated to Horse Radish Peroxidase (HRP) by incubating at room temperature for 45 minutes. Following four further washes with PBSA, 0.05% Tween 20, the secondary antibody was visualised by enhanced chemiluminescence.
Similar to the studies performed with inhibition of binding of VP16 to VP22, peptides A to J, which span residues 18 to 144 of VP22trunc, were used to examine whether gB binding could also be prevented (FIG. 12B).

T1 sequence (P06492 whole entry): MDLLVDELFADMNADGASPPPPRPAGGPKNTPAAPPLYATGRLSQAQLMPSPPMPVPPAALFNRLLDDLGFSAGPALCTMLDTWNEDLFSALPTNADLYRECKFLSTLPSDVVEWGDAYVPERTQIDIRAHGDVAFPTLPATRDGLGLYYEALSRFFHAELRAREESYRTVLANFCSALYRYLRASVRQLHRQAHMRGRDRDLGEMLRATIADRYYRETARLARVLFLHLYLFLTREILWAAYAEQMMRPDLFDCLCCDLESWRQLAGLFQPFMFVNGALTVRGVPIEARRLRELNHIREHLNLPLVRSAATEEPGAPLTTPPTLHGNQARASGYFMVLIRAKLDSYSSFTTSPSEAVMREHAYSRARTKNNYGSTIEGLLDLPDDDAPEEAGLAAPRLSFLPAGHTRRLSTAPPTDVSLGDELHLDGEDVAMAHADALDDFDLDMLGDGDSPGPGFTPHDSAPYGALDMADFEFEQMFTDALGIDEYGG
T2 sequence (P06492 whole entry): as above
T3 sequence (P10211 798-904): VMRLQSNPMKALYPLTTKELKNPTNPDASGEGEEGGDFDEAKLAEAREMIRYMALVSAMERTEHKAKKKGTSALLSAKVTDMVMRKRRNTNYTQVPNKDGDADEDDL

With ITTIRVTVCEGKNLLQRANE [Peptide H], the Solubility result in data set [1] is reported as “soluble”. Further, in data set [2], the “Co-elution of VP16 with VP22trunc from Ni-NTA resin after incubation with peptide” value was “does not prevent interaction with VP22”. In addition, the “Direct binding of VP16 to plate-coated peptide (ELISA)” value in data set [3] is listed as “evidence also for VP16 binding”. Also, the “Inhibition of GST-gB binding to VP22trunc (Far Western)” value in data set [4] was “completely inhibited binding of gB”.
